Measurements as given in patent publication US20170088617A1 (Boehringer Ingelheim, published 2017).

Experiments:
[1] = molecular target: T1, human CD33 on the AML-derived HL60 cell line (human, UniProt P20138 18-364); assay: FACS Scatchard analysis on HL60 cells
T1 construct: whole, on cells; also called CD33 expressing HL60 cell line
Procedure: (§1) Fourteen CD33 binding agents (fully human monoclonal antibodies as listed in table 1 as No. 1-14, respectively) to human and cynomolgus CD33 were determined by FACS Scatchard analysis as described in Brockhoff et al., (Cytometry. 1994 Sep. 1; 17(1):75-83) on CD33 expressing cells (AML-derived HL60 cell line, recombinant HEK293-cynomolgusCD33 cell line). Briefly, dilutions of a CD33 binding agent were prepared in a 96 well plate starting with 100-400 nM in the first well (80 pil), followed by 11 dilution steps (1:2, 40+40 μl). 50 μl of CD33 binding agent dilutions are added to FACS tubes, 150 μl cells (0.8×10⁶/ml=1.2×10⁵ cells/tube) are added to each FACS tube. Cells were gently mixed and incubated for 1 h on ice. Thereafter 50 μl FITC conjugated secondary antibody (concentration 15 μg/ml; mouse mAb anti-human IgG) was added, mixed, and incubated for 30 min. on ice. 4 ml PBS ph7.2 containing 0.02% […] were added thereafter, cells were pelleted and resuspended in 300 μl PBS pH 7.2 and subjected to FACS analysis using a BD FACS Canto. All experimental steps were performed on wet ice, all CD33 binding agent dilutions were made in PBS/0.5% BSA+0.02% acid. FACS calibration was performed using Quantum FITC MESF (Premix) Beads (Bangs Laboratories). All samples were measured using the same FACS parameters. […] A regression line was drawn through the resulting data points, the slope of this line corresponds to the negative value of the association constant.

[2] = molecular target: T2, cynomolgus CD33 on the recombinant HEK293-cynomolgusCD33 cell line (cynomolgus, UniProt A0A7N9ICR5 17-359); assay: FACS Scatchard analysis on HEK293-cynomolgusCD33 cells
T2 construct: whole, on cells
Procedure: as §1

T1 sequence (P20138 18-364): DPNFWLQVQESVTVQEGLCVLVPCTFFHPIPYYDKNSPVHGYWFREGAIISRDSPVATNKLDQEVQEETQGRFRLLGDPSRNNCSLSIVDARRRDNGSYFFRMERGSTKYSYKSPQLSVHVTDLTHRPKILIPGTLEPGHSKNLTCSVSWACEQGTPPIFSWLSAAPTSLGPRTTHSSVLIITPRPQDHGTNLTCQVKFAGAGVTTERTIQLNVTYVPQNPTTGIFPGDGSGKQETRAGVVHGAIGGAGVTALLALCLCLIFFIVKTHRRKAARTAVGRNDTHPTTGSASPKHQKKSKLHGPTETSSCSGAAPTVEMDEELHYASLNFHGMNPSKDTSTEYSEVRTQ

Row | Kd [1] | Kd [2] | Binder
1 | 0.3 nM | 0.03 nM | 280-03-08 (antibody, human IgG1, kappa, V domains shown, Fully human monoclonal antibody; also called No 1; Clone ID# 280-03-08) VH: QVQLVQSGAEVKKPGSSVKVSCKASGGTFSDYAISWVRQAPGQGLEWMGRIIPILGVANYAQKFQGRVTITADKSTRTAYMELSSLRSEDTAVYYCARNWADAFDIWGQGTMVTVSS VL: DIQLTQSPSSLSASVGDRVTITCRASQGISSVLAWYQQKPGKAPKLLIYDASSLESGVPSRFSGSGSGTDFTLTISSLQPEDFATYYCQQFNSSITFGQGTKLEIKR
2 | 0.3 nM | 0.5 nM | 280-34-02 (antibody, human IgG1, kappa, V domains shown, Fully human monoclonal antibody; also called No 6; Clone ID# 280-34-02) VH: QVELVQSGAEVQKPGSSVKVSCKASGDTFSSYAISWVRQAPGQGLEWMGRIIPIVGIVNYAEKFQGRVTITADKSMSTAYMELSSLRSEDTAVYYCARNWADAFDIWGQGTMVTVSS VL: DIQLTQSPSSLSASVGDRVTITCRASQGISSALAWYQQKPGKAPKLLIYDASRLESGVPSRFSGSGSGTDFTLTISSLQPEDFTTYYCQQFNSSYTFGQGTKLEIKR
3 | 0.3 nM | 2.1 nM | 283-07-03 (antibody, human IgG1, kappa, V domains shown, Fully human monoclonal antibody; also called No 12; Clone ID# 283-07-03) VH: QVELVQSGAEVKKPGSSVKVSCKASGGTFSSYAISWVRQAPGQGLEWMGRIIPILGMANYAQKFQGRVTITADKSTYTAYMELSSLRSEDTAVYYCAREGGVDWYFDLWGRGTLVTVSS VL: DIQLTQSPSSLSASVGDRVTITCRASQGISSALAWYQQKPGKAPKFMIYDASSLESGVPSRFSGSGSGTDFTLTISSLQPEDFATYYCQQFNSSITFGQGTKLEIKR
4 | 0.4 nM | 1.7 nM | 280-50-01(mut) (antibody, human IgG1, kappa, V domains shown, Fully human monoclonal antibody; also called No 8) VH: QVQLVQSGAEVKKPGSSVKVACKASGDTFSSYAISWVRQAPGQGLEWMGRVIPIIGIASYAQNFQGRVTITADRSTSTAYMALSSLRSEDTAVYYCARNWADAFDIWGQGTMVTVSS VL: DIQLTQSPSSLSASVGDRVTITCRASQGISSVLAWYQQKPGKAPKLLIYAASSLESGVPSRFSGSGSGTDFTLTISSLQPEDFATYYCQQFDSSITFGQGTKVEIKR
5 | 0.3 nM | 0.5 nM | 280-50-01 (antibody, human IgG1, kappa, V domains shown, Fully human monoclonal antibody; also called No 7; Clone ID# 280-50-01) VH: QVQLVQSGAEVKKPGSSVKVACKASGDTFSSYAISWVRQAPGQGLEWMGRVIPIIGIASYAQNFQGRVTITADRSTSTAYMALSSLRSEDTAVYYCARNWADAFDIWGQGTMVTVSS VL: DIQLTQSPSSLSASVGDRVTITCRASQGISSVLAWYQQKPGKAPKLLIYAASSLESGVPSRFSGSGSGTDFTLTISSLQPEDFATYYCQQFNSSITFGQGTKVEIKR
6 | 0.3 nM | 0.4 nM | 280-61-07 (antibody, human IgG1, kappa, V domains shown, Fully human monoclonal antibody; also called No 9; Clone ID# 280-61-07) VH: QVQLVQSGAEVKKPGSSVKVACKASGDTFSSYAISWVRQAPGQGLEWMGRVIPIIGIASYAQNFEGRVTITADRSTSTAYMALSSLRSEDTAVYYCARNWADAFDIWGQGTMVTVSS VL: DIQLTQSPSSLSASVGDRVTITCRASQGISSVLAWYQQKPGKAPKLLIYAASSLESGVPSRFSGSGSGTDFTLTISSLQPEDFATYYCQQFNSSITFGQGTKLEIKR
7 | – | 2.3 nM | 283-14-01 (antibody, human IgG1, kappa, V domains shown, Fully human monoclonal antibody; also called No 14; Clone ID# 283-14-01) VH: QVQLVQSGAEVKKPGSSVKVSCKASGGTFSSYAISWVRQAPGQGLEWMGRIIPILGIANYAQKFQGRVTITADKSTYTAYMELSSLRSEDTAVYYCAREGGVDWYFDLWGRGTLVTVSS VL: DIQLTQSPSSLSASVGDRVTITCRASQGISSALAWYQQKPGKAPKFMIYDASSLESGVPSRFSGSGSGTDFTLTISSLQPEDFATYYCQQFNSSITFGQGTKLEIKR
8 | – | 1.9 nM | 283-03-03 (antibody, human IgG1, kappa, V domains shown, Fully human monoclonal antibody; also called No 10; Clone ID# 283-03-03) VH: QVELVQSGAEVKKPGSSVKVSCKASGGTFSSYAISWVRQAPGQGLEWMGRIIPILDMANYAQKFQGRVTITADKSTYTAYMELSSLRSEDTAVYYCAREGGVDWYFDLWGRGTLVTVSS VL: DIQLTQSPSSLSASVGDRVTITCRASQGISSALAWYQQKPGKAPKFMIYDASSLESGVPSRFSGSGSGTDFTLTISSLQPEDFATYYCQQFNSSITFGQGTKLEIKR
9 | – | 0.6 nM | 280-29-12 (antibody, human IgG1, kappa, V domains shown, Fully human monoclonal antibody; also called No 3; Clone ID# 280-29-12) VH: QVQLVQSGTEVKKPGSSVKVSCKVSGDTFSSYAISWVRQAPGQGLEWMGRIIPIIGIANYAQKFQGRVTITADKSTSTAYMELSSLRSEDTAVYYCARHWLDAFDIWGQGTMVTVSS VL: DIQLTQSPSSLSASVGDRVTITCRASQGISSALAWSQQKPGKAPKLLIYDASSLESGVPSRFSGSGSGTDFTLTISSLQPEDFATYYCQQFNSSITFGQGTKLEIKR
10 | – | 0.3 nM | 280-21-09 (antibody, human IgG1, kappa, V domains shown, Fully human monoclonal antibody; also called No 2; Clone ID# 280-21-09) VH: QVQLVQSGAEVKKPGSSVKVSCKASGDTFSSYAISWVRQAPGQGLEWMGRIIPIINIASYAQNFQGRVTITADKSTNTAYMELSSLRSEDTAVYYCARNWADAFDIWGQGTMVTVSS VL: DIQLTQSPSSLSASVGDRVTITCRASQGISSALAWYQQKPGKAPKLLIYDASSLESGVPSRFSGSGSGTDFTLTISSLQPEDFATYYCQQFNSSITFGQGTKLEIKR
11 | – | 0.6 nM | 283-11-03 (antibody, human IgG1, kappa, V domains shown, Fully human monoclonal antibody; also called No 13; Clone ID# 283-11-03) VH: QVQLVQSGAEVKKPGSSMKVSCKASEDTFSSYAISWVRQAPGQGLEWMGRIIPIIGIVNYAQKFQGRVTITADKSTCTAYMELTSLRSEDTAVYYCAREGGVDWYFDLWGRGTLVTVSS VL: DIQLTQSPSSLSASVGDRVTITCRASQGISSALAWYQQKPGKAPKFMIYDASSLESGVPSRFSGSGSGTDFTLTISSLQPEDFATYYCQQFNSSITFGQGTKLEIKR
12 | – | 0.5 nM | 280-31-01(mut) (antibody, human IgG1, kappa, V domains shown, Fully human monoclonal antibody; also called No 5) VH: QVQLVQSGAEVKKPGSSVKVSCKASGGTFSDYAISWVRQAPGQGLEWMGRIIPILGVADYAQKFQGRVTITADKSTRTAYMELSSLRSEDTAVYYCARNWADAFDIWGQGTMVTVSS VL: DIQLTQSPSSLSASVGDRVTITCRASQGISSVLAWYQQKPGKAPKLLIYDASSLESGVPSRFSGSGSGTDFTLTISSLQPEDFATYYCQQFDSSITFGQGTKLEIKR
13 | – | 0.3 nM | 280-31-01 (antibody, human IgG1, kappa, V domains shown, Fully human monoclonal antibody; also called No 4; Clone ID# 280-31-01) VH: QVQLVQSGAEVKKPGSSVKVSCKASGGTFSDYAISWVRQAPGQGLEWMGRIIPILGVADYAQKFQGRVTITADKSTRTAYMELSSLRSEDTAVYYCARNWADAFDIWGQGTMVTVSS VL: DIQLTQSPSSLSASVGDRVTITCRASQGISSVLAWYQQKPGKAPKLLIYDASSLESGVPSRFSGSGSGTDFTLTISSLQPEDFATYYCQQFNSSITFGQGTKLEIKR
14 | – | 1.1 nM | 283-05-01 (antibody, human IgG1, kappa, V domains shown, Fully human monoclonal antibody; also called No 11; Clone ID# 283-05-01) VH: QVELVQSGAEVKKPGSSVKVSCKASEDTFSSYAISWVRQAPGQGLEWMGRIIPIIGIVNYAQKFQGRVTITADKSTYTAYMELSSLRSEDTAVYYCAREGGVDWYFDLWGRGTLVTVSS VL: DIQLTQSPSSLSASVGDRVTITCRASQGISSALAWYQQKPGKAPKFMIYDASSLESGVPSRFSGSGSGTDFTLTISSLQPEDFATYYCQQFNSSITFGQGTKLEIKR
